Data from PMC11558545 (2024).
Numbering of substitutions follows the chain as printed. Where “and” joins values, the source holds several entries; their conditions need not be identical. Identical values can stand only once. Like-named read-outs stand apart in the source and are kept apart here. Square brackets hold non-standard residues; d marks the D form. Ends that are not written are not given here. pT = C[C@@H](OP(=O)(O)O)[C@H](N)C(=O)O; pS = N[C@@H](COP(=O)(O)O)C(=O)O

T1: Arabidopsis 14-3-3 isoform kappa (At14-3-3-κ^1−248) (Arabidopsis thaliana, UniProt P48348 1-248)
T1 chain: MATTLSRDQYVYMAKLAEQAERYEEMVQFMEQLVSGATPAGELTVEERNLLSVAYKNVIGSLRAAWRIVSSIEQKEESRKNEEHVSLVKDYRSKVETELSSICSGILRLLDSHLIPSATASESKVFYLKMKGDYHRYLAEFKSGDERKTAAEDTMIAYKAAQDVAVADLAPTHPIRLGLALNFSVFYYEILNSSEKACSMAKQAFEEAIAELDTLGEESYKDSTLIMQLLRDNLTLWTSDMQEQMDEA

T2: At14-3-3 λ^N233A (Arabidopsis thaliana, UniProt P48349 1-248, N233A)
T2 sequence: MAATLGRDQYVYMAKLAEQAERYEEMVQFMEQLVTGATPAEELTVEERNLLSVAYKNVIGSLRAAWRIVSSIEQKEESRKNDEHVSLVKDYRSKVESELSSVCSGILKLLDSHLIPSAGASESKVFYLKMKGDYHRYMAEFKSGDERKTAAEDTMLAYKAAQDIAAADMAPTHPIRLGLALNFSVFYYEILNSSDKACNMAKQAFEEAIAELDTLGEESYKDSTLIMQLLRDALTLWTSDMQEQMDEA

T3: Arabidopsis 14-3-3 omega, full length (At14-3-3-ω^1−259) (Arabidopsis thaliana, UniProt Q01525 1-259)
T3 chain: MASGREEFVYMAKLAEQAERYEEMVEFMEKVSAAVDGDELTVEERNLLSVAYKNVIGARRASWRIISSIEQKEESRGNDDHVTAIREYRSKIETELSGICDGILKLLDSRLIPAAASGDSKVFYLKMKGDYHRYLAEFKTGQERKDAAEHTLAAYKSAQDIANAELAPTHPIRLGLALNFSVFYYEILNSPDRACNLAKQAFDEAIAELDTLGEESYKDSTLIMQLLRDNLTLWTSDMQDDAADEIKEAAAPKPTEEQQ

T4: Arabidopsis 14-3-3 lambda (At14-3-3-λ^1−248) (Arabidopsis thaliana, UniProt P48349 1-248)
T4 chain: T2 sequence with A233N

T5: biotinylated 14-3-3 ω dimer (Arabidopsis thaliana, UniProt Q01525 1-259, biotin (EZ-Link NHS-Biotin, equimolar amounts of protein and biotin; sites not stated))
T5 chain: T3 chain


Tests used:
[1] = target: T1, Arabidopsis 14-3-3 isoform kappa …; assay: ITC
At14-3-3 λ^N233A = target: T2, At14-3-3 λ^N233A; assay: ITC
[2] = target: T3, Arabidopsis 14-3-3 omega, full length …; assay: ITC
[3] = target: T4, Arabidopsis 14-3-3 lambda …; assay: ITC
[4] = target: T1, Arabidopsis 14-3-3 isoform kappa …; assay: ITC
[5] = target: T5, biotinylated 14-3-3 ω dimer

Binder	Kd [1]	Kd (At14-3-3 λ^N233A)	Kd [2]	Kd [3]	Kd [4]	koff [5]
RISN[pS]CPV[pT]PPVSSPT [pBZR1^169−184 peptide]	3.1 µM and 3 µM					
RKL[pT]FA [pBRI1^869−874 peptide]	16.7 µM and 17 µM	40 µM				
RISN[pS]AP [pBZR1^169−175 peptide]	0.38 µM and 0.4 µM	5 µM	0.88 µM	0.81 µM	0.57 µM	0.87 s⁻¹
RGELF[pS]AP [pBKI1^265−272 peptide]		3.7 µM	6.4 µM	5.4 µM	14.4 µM	
